Where a chain is given by its changes, count along the chain named. Names may count otherwise.
B1: 15H6: 7A1 biosensor with F433Y, M493V in Luc2.0 and modified linker …; SEQ ID NO:107, 108 (protein)
chain: MPGAVGKVVPFFEAKVVDLDTGKTLGVNQRGELCVRGPMIMSGYVNNPEATNALIDKDGWLHSGDIAYWDEDEHFYIVDRLKSLIKYKGYQVAPAELESILLQHPNIFDAGVAGLPDDDAGELPAAVVVLEHGKTVTEKEIVDYVASQVTTAKKLRGGVVFVDEVPKGLTGKLDARKIREILIKAKKGSNWDSGCSRECMYESFIESLPFLKSLEFSARLKVVDVIGTKVYNDGEQIIAQGDSADSFFIIESGEVKITMKRKGKSEVEENGAVEIARCSRGQYFGELALVTNKPRAASAHAIGTVKCLAMDVQAFERLLGPCMEIMKRNIATYEEQLVALFGTNMDIVAKNIKKGPAPFYPLEDGTAGEQLHKAMKRYALVPGTIAFTDAHIEVDITYAEYFEMSVRLAEAMKRYGLNTNHRIVVCSENSLQFFMPVLGALFIGVAVAPANDIYNERELLNSMGISQPTVVFVSKKGLQKILNVQKKLPIIQKIIIMDSKTDYQGFQSMYTFVTSHLPPGFNEYDFVPESFDRDKTIALIMNSSGSTGLPKGVALPHRTACVRFSHARDPIFGNQIIPDTAILSVVPFHHGFGMFTTLGYLICGFRVVLMYRFEEELFLRSLQDYKIQSALLVPTLFSFFAKSTLIDKYDLSNLHEIASGGAPLSKEVGEAVAKRFHLPGIRQGYGLTETTSAILITPEGV
notes: 7A1 biosensor with F433Y, M493V in Luc2.0 and modified linker …
B2: 9G4: 7A1 biosensor with E382K in RIIβb; SEQ ID NO:37, 38 (protein)
chain: B1 chain with Y76F, V136M, C199G, E316K
B3: 1B3: 7A1 biosensor with A338E in RIIβb; SEQ ID NO:33, 34 (protein)
chain: B1 chain with Y76F, V136M, C199G, A272E
B4: 16B3: 7A1 biosensor with S440N in Luc2.0; SEQ ID NO:72, 73 (protein)
chain: B1 chain with Y76F, S83N, V136M, C199G
B5: L9-ILY: L9 background with Luc2.0 F369I, F518L and RIIβB F407Y; SEQ ID NO:82, 83 (protein)
chain: MPGAVGKVVPFIEAKVVDLDTGKTLGVNQRGELCVRGPMIMSGYVNNPEATNALIDKDGWLHSGDIAYWDEDEHFFIVDRLKSLIKYKGYQVAPAELESILLQHPNIFDAGVAGLPDDDAGELPAAVVVLEHGKTMTEKEIVDYVASQVTTAKKLRGGVVLVDEVPKGLTGKLDARKIREILIKAKKGSIAGCGDAGEGMYESFIESLPILKSLEFSARLKVVDVIGTKVYNDGEQIIAQGDSADSFYIIESGEVKITMKRKGKSEVEENGAVEIARCSRGQYFGELALVTNKPRAASAHAIGTVKCLAMDVQAFERLLGPCMEIMKRNIATYEEQLVALYGTNMDIVAKNIKKGPAPLYPLEDGTAGEQLHKAMKRYALVPGTIAFTDAHIEVDITYAEYFEMSVRLAEAMKRYGLNTNHRIVVCSENSLQFFMPVLGALFIGVAVAPANDIYNERELLNSMGISQPTVVFVSKKGLQKILNVQKKLPIIQKIIIMDSKTDYQGFQSMYTFVTSHLPPGFNEYDFVPESFDRDKTIALIMNSSGSTGLPKGVALPHRTACVRFSHARDPIFGNQIIPDTAILSVVPFHHGFGMFTTLGYLICGFRVVLMYRFEEELFLRSLQDYKIQSALLVPTLFSFFAKSTLIDKYDLSNLHEIASGGAPLSKEVGEAVAKRFHLPGIRQGYGLTETTSAILITPEGV
B6: L9-I: L9 background with Luc2.0 F369I; SEQ ID NO:92, 93 (protein)
chain: B5 chain with L161F, I210F, Y248F, Y341F, L359F
B7: L9-L: L9 background with Luc2.0 F518L; SEQ ID NO:94, 95 (protein)
chain: B5 chain with I12F, I210F, Y248F, Y341F, L359F
B8: L9-ILQY: L9 background with Luc2.0 F369I, F518L, K541Q and RIIβB F407Y; SEQ ID NO:80, 81 (protein)
chain: B5 chain with K184Q, I210F, Y248F, L359F

system: HEK293 cells; assay: Luminescence and fold response of biosensor clones in HEK293 cells after isoproterenol or FSK; type: cell-based; settings: 5 minutes after isoproterenol
Description: B. HEK293 cells were transiently transfected with plasmid DNAs encoding various biosensor mutants as above. These biosensor mutants contained the E284A and V316I mutation in the RIIbetaB cAMP binding domain and the modified linker sequence 7A1 (GSNWDSGCSREG; SEQ ID NO: 129). The clones also contained the additional mutations outlined in Table 5. Cells were equilibrated for 2 hours at room temperature with 2 mM EF-Luc. Luminescence was measured 5 and 15 minutes after addition of the isoproterenol and 15 minutes after addition of FSK. Fold response (response; Resp.) was calculated by dividing relative light units (RLUs) from induced cells by the RLUs from uninduced cells. As a control, the biosensor GS358 and 7A1 were included.

Going from B1 to B2, the “Isoproterenol-5 minutes Induced” value falls from 91567 RLU to 27930 RLU.

First: B3
Second: B4
The “Isoproterenol-5 minutes Induced” value of the first is lower: 59767 RLU for the first, 72003 RLU for the second.

same assay, conditions: 15 minutes after FSK

Going from B1 to B2, the “Forskolin (FSK) Induced” value rises from 29500 RLU to 263020 RLU.

Going from B3 to B4, the “Forskolin (FSK) Induced” value falls from 305500 RLU to 257605 RLU.

same assay, conditions: 15 minutes after isoproterenol

First: B1
Second: B2
The “Isoproterenol-15 minutes Induced” value of the first is lower: 244700 RLU for the first, 264500 RLU for the second.

Compared with B3, B4 is lower in “Isoproterenol-15 minutes Induced” value: 344375 RLU for the first, 248415 RLU for the second.

same assay, conditions: RLU induced / RLU uninduced, 5 minutes after isoproterenol

Compared with B1, B2 is lower in “Isoproterenol-5 minutes Resp” value: 85 fold for the first, 50 fold for the second.

Going from B3 to B4, the “Isoproterenol-5 minutes Resp” value falls from 36 fold to 35 fold.

same assay, conditions: RLU induced / RLU uninduced, 15 minutes after FSK

Compared with B1, B2 is lower in “Forskolin (FSK) Resp” value: 57 fold for the first, 46 fold for the second.

Going from B3 to B4, the “Forskolin (FSK) Resp” value falls from 47 fold to 39 fold.

same assay, conditions: RLU induced / RLU uninduced, 15 minutes after isoproterenol

First: B1
Second: B2
The “Isoproterenol-15 minutes Resp” value of the first is higher: 61 fold for the first, 46 fold for the second.

Going from B3 to B4, the “Isoproterenol-15 minutes Resp” value falls from 53 fold to 38 fold.

same assay, conditions: uninduced cells, 5 minutes

First: B1
Second: B2
The “Isoproterenol-5 minutes Uninduced” value of the first is higher: 1073 RLU for the first, 553 RLU for the second.

First: B3
Second: B4
The “Isoproterenol-5 minutes Uninduced” value of the first is lower: 1673 RLU for the first, 2063 RLU for the second.

same assay, conditions: uninduced cells, 15 minutes

First: B1
Second: B2
The “Forskolin (FSK) Uninduced” value of the first is lower: 4040 RLU for the first, 5760 RLU for the second.

Compared with B3, B4 is higher in “Forskolin (FSK) Uninduced” value: 6460 RLU for the first, 6555 RLU for the second.

Going from B1 to B2, the “Isoproterenol-15 minutes Uninduced” value rises from 4040 RLU to 5760 RLU.

First: B3
Second: B4
The “Isoproterenol-15 minutes Uninduced” value of the first is lower: 6460 RLU for the first, 6555 RLU for the second.

target: T1, dopamine D2 receptor (Homo sapiens, UniProt P14416); assay: Forskolin, dopamine and haloperidol responses of biosensor clones in HEK293 cells stably expressing the dopamine D2 receptor; type: cell-based; settings: 3 μM FSK + 0.3 μM dopamine, 10 minutes
T1 construct: expressed in transfected cells
T1 sequence (P14416 whole entry, species assumed): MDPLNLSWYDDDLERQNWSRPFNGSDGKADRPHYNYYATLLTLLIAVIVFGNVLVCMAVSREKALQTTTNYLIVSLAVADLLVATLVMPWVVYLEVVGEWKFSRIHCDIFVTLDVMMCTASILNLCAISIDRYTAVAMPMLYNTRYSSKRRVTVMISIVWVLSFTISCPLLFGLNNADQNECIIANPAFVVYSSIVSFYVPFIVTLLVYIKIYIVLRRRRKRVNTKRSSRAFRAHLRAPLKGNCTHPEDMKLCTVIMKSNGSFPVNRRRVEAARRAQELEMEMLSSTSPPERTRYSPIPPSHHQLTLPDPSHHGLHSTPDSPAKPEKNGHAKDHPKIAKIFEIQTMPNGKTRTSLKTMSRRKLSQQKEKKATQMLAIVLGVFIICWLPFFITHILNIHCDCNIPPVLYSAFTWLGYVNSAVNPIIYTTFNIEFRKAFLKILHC
Excerpt: To measure changes in the intracellular concentration of cAMP, HEK293 cells are transiently transfected with mutant cAMP biosensors followed by treatment with compounds known to increase or decrease the intracellular cAMP concentration through GPCR activation of Gs- or Gi-coupled receptors, respectively.
HEK293 cells stably expressing the dopamine D2 receptor were transiently transfected with the mutant cAMP biosensors from Example VIIB. Cells were also transfected with either 7A1 (Example III) or GS358 (parent biosensor) as controls. Cells were equilibrated for 2 hours at room temperature using 2 mM EF-luc. Antagonist assay wells were pre-treated for 10-15 minutes at room temperature with 10 μM Haloperidol (Halo). Next, the following reagents were added to their respective wells: media alone to “untreated” samples; 3 μM forskolin (FSK) to “forskolin-treated” samples; 3 μM FSK+0.3 μM dopamine to “agonist-treated” samples; and 3 μM FSK+0.3 μM dopamine to the aforementioned wells pre-treated with Halo. The cells were then incubated at room temperature for 10 minutes and luminescence was measured. Fold response for FSK was calculated by dividing the RLU from “forskolin-treated” cells by the RLU from the “untreated” cells. Fold response for dopamine treatment was calculated by dividing the RLU from the “agonist-treated” cells by the RLU from the “forskolin-treated” cells. Fold response for Haloperidol treatment was calculated by dividing the RLU from the cells treated with haloperidol then forskolin plus dopamine by the RLU of cells treated with forskolin plus dopamine alone.

Compared with B1, B2 is higher in “Dopamine Induced” value: 30 RLU for the first, 1735 RLU for the second.

Going from B3 to B4, the “Dopamine Induced” value rises from 1898 RLU to 3050 RLU.

same assay, conditions: 3 μM FSK, 10 minutes

Compared with B1, B2 is lower in “Forskolin (FSK) Induced” value: 7177 RLU for the first, 4133 RLU for the second.

Going from B3 to B4, the “Forskolin (FSK) Induced” value falls from 8410 RLU to 6400 RLU.

same assay, conditions: 10 μM Haloperidol pre-treatment, then 3 μM FSK + 0.3 μM dopamine

Compared with B1, B2 is higher in “Halo Induced” value: 65 RLU for the first, 4370 RLU for the second.

First: B3
Second: B4
The “Halo Induced” value of the first is lower: 5228 RLU for the first, 6188 RLU for the second.

same assay, conditions: RLU agonist-treated / forskolin-treated

First: B1
Second: B2
The “Dopamine Response” value of the first is higher: 0.56 fold for the first, 0.42 fold for the second.

Compared with B3, B4 is higher in “Dopamine Response” value: 0.23 fold for the first, 0.48 fold for the second.

same assay, conditions: RLU forskolin-treated / untreated

First: B1
Second: B2
The “Forskolin (FSK) Response” value of the first is higher: 25 fold for the first, 14 fold for the second.

First: B3
Second: B4
The “Forskolin (FSK) Response” value of the first is higher: 18 fold for the first, 17 fold for the second.

same assay, conditions: RLU haloperidol then FSK + dopamine / FSK + dopamine alone

Compared with B1, B2 is higher in “Halo Response” value: 2.2 fold for the first, 2.5 fold for the second.

Compared with B3, B4 is lower in “Halo Response” value: 2.8 fold for the first, 2.0 fold for the second.

same assay, conditions: untreated (media alone), 10 minutes

Compared with B1, B2 is higher in “Forskolin (FSK) Uninduced” value: 283 RLU for the first, 293 RLU for the second.

Compared with B3, B4 is lower in “Forskolin (FSK) Uninduced” value: 460 RLU for the first, 370 RLU for the second.

target: T2, GPR41 (Homo sapiens, UniProt O14843); assay: Sodium proprionate CRC with biosensor variants in HEK293 cells stably expressing GPR41; type: cell-based; settings: with FSK 1 μM
T2 sequence (O14843 1-346): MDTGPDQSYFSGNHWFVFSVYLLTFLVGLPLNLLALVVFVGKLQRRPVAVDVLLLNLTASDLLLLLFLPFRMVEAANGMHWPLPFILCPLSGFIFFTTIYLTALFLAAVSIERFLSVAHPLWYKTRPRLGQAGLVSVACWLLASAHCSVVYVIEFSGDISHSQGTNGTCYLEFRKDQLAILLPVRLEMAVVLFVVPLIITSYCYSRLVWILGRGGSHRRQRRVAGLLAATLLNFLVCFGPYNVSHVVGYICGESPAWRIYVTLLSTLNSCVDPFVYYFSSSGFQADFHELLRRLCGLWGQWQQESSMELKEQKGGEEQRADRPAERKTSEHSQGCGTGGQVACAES
Description: (§1) After 24 hours, the cells were transiently transfected with one of the cAMP biosensor variants (Tables 7A and 7B). After another 24 hours, the cells were equilibrated for 2 hours at room temperature using 5 mM EF-luc in CO2 independent media with 10% FBS. Prior to the addition of the compounds, luminescence was measured. The compounds (12× stock in CO2 independent media without FBS) were then added to the cells. For GPR41 expressing cells, sodium proprionate CRC was added. […] The cells were allowed to incubate another 30 minutes and luminescence read on a Varioskan Flash. EC50 values and fold responses were calculated for each of the clones with each of the compounds with or without FSK. In addition, variants […]7 (Example VIIB), 16A2 (Example VIIB) and GS358 were also screened.

Going from B5 to B6, the “Fold Response Na proprionate + FSK(1 μM)” value falls from 4.91 fold to 3.83 fold.

In the case of B7, the “Fold Response Na proprionate + FSK(1 μM)” value is reported as 5.72 fold.

same assay, conditions: without FSK, ratio of induced to uninduced signal

Compared with B5, B6 is higher in “Fold Response Na proprionate” value: 3.34 fold for the first, 3.61 fold for the second.

With B7 the “Fold Response Na proprionate” value was 3.04 fold.

system: GPR41; assay: as above; type: cell-based; settings: ratio of RLU of FSK treated well to untreated well
Description: as §1

First: B5
Second: B6
The “Fold Signal Change” value of the first is higher: 161.2 fold for the first, 83.5 fold for the second.

First: B7
Second: B8
The “Fold Signal Change” value of the first is lower: 72.2 fold for the first, 152.7 fold for the second.
